Laboratory results as given in patent publication US20240270826A1 (NATIONAL RESEARCH COUNCIL OF CANADA, published 2024).

Legend:
[1] = target: Human SARS-CoV-2_Wuhan S (SmT1) (SARS-CoV-2 (Wuhan), UniProt P0DTC2 14-1208); experiment: flow cytometry SVNA: VHH-Fc inhibits S binding to ACE2 on Vero E6 cells
[2] = target: T1, SARS-CoV-2 S2 (aa686-1208) (Wuhan) (SARS-CoV-2 Wuhan, UniProt P0DTC2 686-1208); experiment: SPR, antigen on chip
T1 construct: NRC; FLAG, 6xHis tags

[3] = target: T2, SARS-CoV-2 S1 (aa16-685) (Wuhan) (SARS-CoV-2 Wuhan, UniProt P0DTC2 16-685); experiment: SPR, antigen on chip
T2 construct: NRC; FLAG, 6xHis tags

[4] = target: T3, SARS-CoV-2 spike trimer S (Wuhan, SmT1) (SARS-CoV-2 Wuhan); experiment: SPR, antigen on chip
T3 construct: extracellular domain

[5] = target: T4, SARS-CoV-2 S on CHO-S cells (SARS-CoV-2, UniProt P0DTC2 14-1273); experiment: flow cytometry, CHO-S cells
T4 construct: whole, on cells

[6] = target: T1, SARS-CoV-2 S2 (aa686-1208) (Wuhan); experiment: ELISA
[7] = target: SARS-CoV spike (S) (SARS-CoV, UniProt P59594 14-1195); experiment: ELISA
[8] = target: SARS-CoV-2 spike protein S on live virus, Wuhan (strain SARS-CoV-2/Canada/VIDO-01/2020) (SARS-CoV-2 (Wuhan), UniProt P0DTC2 14-1273); experiment: cell-based or functional assay
[9] = target: Human SARS-CoV-2_Wuhan S (SmT1) (SARS-CoV-2 (Wuhan), UniProt P0DTC2 14-1208); experiment: flow cytometry SVNA, VHH-Fc vs biotin-S binding to Vero E6 ACE2

B1: NRCoV2-02 VHH-Fc (Fc fusion)
chain: EVQLVESGGGLVQAGGSLRLSCAASGFTFSNYAMNWVRQAPGKGLEWVSGISGRGDDTRYADSVKGRFTISRDNAKNTLFLQMRSLRPEDTGVYRCTKGPDLYYFGSGYSDRGQGTQVTVSS
notes: bivalent VHH-Fc
- IC50 [1]: 4.7 nM

B2: NRCoV2-14 VHH-Fc (Fc fusion)
chain: EVQLVSSGGGLVQAGGSLRLSCEASGTTFSHYAVGWYRQAPGKQREWVASISVFGSTTYGGSVAGRFTISRDNDKNTVDLQMNSLKPEDTAVYYCHAVNADIGGDYWGQGTQVTVSS
notes: bivalent VHH-Fc
- IC50 [1]: 7.5 nM

B3: NRCoV2-MRed20 VHH (VHH)
VHH: EVQLVESGGGSVQAGGSLRLSCAASGLSFSSYDMGWFRQAPGKEREFVAAIRESGSGTYYADSVKGRFTISRDNAKNTVYLQVSSLKPEDTAVYTCAAKPPFYGSGTYSTPRAYLYWGQGTQVTVSS
- Kd [2]: 0.299 nM
- koff [2]: 3.38e-05 s⁻¹
- kon [2]: 113000 M⁻¹ s⁻¹
- binding result [3]: no binding
- Kd [4]: 0.0918 nM
- koff [4]: 1.46e-05 s⁻¹
- kon [4]: 160000 M⁻¹ s⁻¹

B4: NRCoV2-MRed05 VHH-Fc (Fc fusion)
chain: EVQLVESGGGLVQPGGSLRLSCAASGFTLDYYAIGWFRQAPGKEREGVSCISSSDGSTLYADSVKGRFTISRDNAKNTVYLQMNSLKPEDTAVYYCATGPQAYYSGSYYFQCPQAGMDYWGKGTQVTVSS
notes: bivalent VHH-Fc
- IC50 [1]: 4.3 nM

B5: NRCoV2-MRed06 VHH-Fc (Fc fusion)
chain: EVQLVESGGGLVQAGGSLRLSCAASGFTLAYYAIGWFRQAPGKEREGVSCISSSDGSAHYADSVKGRFTISRDNAKNTVSLQMNSLKPEDTAVYYCATDSFSSCSDYESGMDFWGKGTQVTVSS
notes: bivalent VHH-Fc
- Bmax [5]: 9020
- EC50 [5]: 8.5 nM
- binding result [6]: no binding (tested: 13 nM)
- binding result [7]: no binding (tested: 13 nM)

B6: NRCoV2-MRed06 VHH (VHH)
VHH: B5 chain
- binding result [2]: no binding
- Kd [3]: 4.22 nM
- koff [3]: 0.00157 s⁻¹
- kon [3]: 371000 M⁻¹ s⁻¹
- Kd [4]: 4.8 nM
- koff [4]: 0.000887 s⁻¹
- kon [4]: 185000 M⁻¹ s⁻¹

B7: NRCoV2-SR13 VHH-Fc (Fc fusion)
chain: EVQLVESGGGLVTTGGSLRLSCATSGSRFGSKHMAWYRQAPGKQRDLVAAISSGGSTHYGSSVKGRFTISRDNAKSTVYLQMNSLNPEDTAVFYCNMGGWDYRSNTYIPGSRSDYWGQGTQVTVSS
notes: bivalent VHH-Fc
- LVNA IC50 [8]: ~100 nM
- IC50 [9]: 23.8 nM
- IC99 [9]: 1970 nM
- Imax % [9]: 82%

B8: NRCoV2-MRed25 VHH (VHH)
VHH: EVQLVESGGGLVQAGGSLRLSCAASGHTFSRYGMGWFRQAPGKEREFVAAISWRGDSTYYRDSVNGRFTISRDNAKNTVYLGMNSLKPEDTAVYYCAAEMWGTATIVASRYTYWGQGTQVTVSS
- Kd [2]: 1.56 nM
- koff [2]: 0.00019 s⁻¹
- kon [2]: 122000 M⁻¹ s⁻¹
- binding result [3]: no binding
- Kd [4]: 1.02 nM
- koff [4]: 0.000115 s⁻¹
- kon [4]: 112000 M⁻¹ s⁻¹

B9: NRCoV2-SR16 VHH-Fc (Fc fusion)
chain: QVQLVQSAGGLVQAGGSLRLSCVVSGTTFSRYHMGWHRQAPGKQRDFVAGISTSGAVTYADSAKGRFTISRDNAKNTVYLEMNSLKLEDTALYYCNTGGWDYRSSTFIMGLNWGQGTQVTVSS
notes: bivalent VHH-Fc
- Bmax [5]: 11600
- EC50 [5]: 1.4 nM
- binding result [6]: no binding (tested: 13 nM)
- binding result [7]: no binding (tested: 13 nM)

B10: NRCoV2-17 VHH-Fc (Fc fusion)
chain: EVQLQQSGGGLVQTGGSLRLSCAAAGSPFSQLAMSWYRQISGKERAWVASISPTGNRSYSKIAKGRFTISRDNAKNTVTLQMTSLKPEDTAAYICQAANVNGGDYWGQGTQVTVSS
notes: bivalent VHH-Fc
- IC50 [1]: 8.6 nM

B11: NRCoV2-05 VHH-Fc (Fc fusion)
chain: EVKLVQSGGGLVQPGGSLRLSCAASGFIFSNYAMNWVRQAPGKGLEWVSGINSGGGDTRYADSVKGRFTVSRDNAKNTLYLQMNSLKPEDTGVYYCSKGPVSSYYGSGYDYRGQGTQVTVSS
notes: bivalent VHH-Fc
- IC50 [1]: 4.9 nM

B12: NRCoV2-SR02 VHH-Fc (Fc fusion)
chain: EVQLVDSGGGLVQAGGSLRLSCTASEFTLNYYSIGWFRQSPGKEREGVSCIRYSGGGIDYADSVKGRFTISRDNAKNTVYLTMNSLKPEDTAVYYCAADRLYSRACPTAGGRNYWGQGTQVTVSS
notes: bivalent VHH-Fc
- IC50 [1]: 1.7 nM

B13: NRCoV2-1d VHH-Fc (Fc fusion)
chain: EVQLVESGGGSVQPGGSLRLSCAASGSTLDYYAIGWFRQAPGKEREWVSSVSSSDGNTLYADSVKGRFTISRDNAKNTVYLQMNSLKAEDTAVYVCAADYSMRPFAVGRWHRDYEYWGQGTQVTVSS
notes: bivalent VHH-Fc
- IC50 [1]: 4.7 nM

B14: NRCoV2-MRed07 VHH (VHH)
VHH: EVQLVESGGGLVQPGGSLTLSCAASGSIGPFNTMGWYRQAPGNQREPAAIITRGGVTNYADSVKGRFTISRDNAKNAVYLQMDSLKPDDTAVYYCYANYGWAIPYWGNGTQVTVSS
- binding result [2]: no binding
- Kd [3]: 0.378 nM
- koff [3]: 0.000427 s⁻¹
- kon [3]: 1.13e+06 M⁻¹ s⁻¹
- Kd [4]: 0.236 nM
- koff [4]: 0.000378 s⁻¹
- kon [4]: 1.6e+06 M⁻¹ s⁻¹

B15: NRCoV2-MRed19 VHH (VHH)
VHH: EVQLVESGGGLVQPGGSLRLSCAASTIIFKGQTMGWFRQAPGNERELVATMTTSGSANYADSVKGRFTISRDNEKTVTLQMNSLKPEDTALYYCYMHSVYYGIDYWGKGTQVTVSS
- Kd [2]: 8.2 nM
- koff [2]: 0.00084 s⁻¹
- kon [2]: 102000 M⁻¹ s⁻¹
- binding result [3]: no binding
- Kd [4]: 5.01 nM
- koff [4]: 0.000799 s⁻¹
- kon [4]: 159000 M⁻¹ s⁻¹

B16: NRCoV2-MRed03 VHH-Fc (Fc fusion)
chain: EVQLVESGGGLVQPGGSLRLSCAAIGFTLDYYAIGWFRQAPGKEREGVSCISSSDGSTYYADSVKGRFTISRDNAKNTVYLQMNSLKPEDTAVYYCATDAFATCDSWYAQIAQYDFRGQGTQVTVSS
notes: bivalent VHH-Fc
- Bmax [5]: 12000
- EC50 [5]: 15.1 nM
- binding result [6]: no binding (tested: 13 nM)
- binding result [7]: no binding (tested: 13 nM)

B17: NRCoV2-MRed03 VHH (VHH)
VHH: B16 chain
- binding result [2]: no binding
- Kd [3]: 0.223 nM
- koff [3]: 6.15e-05 s⁻¹
- kon [3]: 276000 M⁻¹ s⁻¹
- Kd [4]: 0.52 nM
- koff [4]: 8.14e-05 s⁻¹
- kon [4]: 157000 M⁻¹ s⁻¹

B18: NRCoV2-04 VHH-Fc (Fc fusion)
chain: AVQLVDSGGGLVQPGGSLRLSCAASGSPFSNVVMAWYRQAPGKQRERVAFISGGGIADYIMSVKGRFTISRDNAKNTVYLQMNSLKPEDTAVYYCWSSYESTWGQGTQVTVSS
notes: bivalent VHH-Fc
- IC50 [1]: 10.8 nM

B19: NRCoV2-MRed11 VHH (VHH)
VHH: EVQLVESGGGLVQAGGSLRLSCAASGFTFSSYAMSWHRQAPGKGLEWVSAINSGGGSTSYADSVKGRFAISRDNAKNTLYLQMNSLKPEDTAVYYCATTISDGSSWSTKSYRGQGTQVTVSS
- Kd [2]: 5.21 nM
- koff [2]: 0.000213 s⁻¹
- kon [2]: 40900 M⁻¹ s⁻¹
- binding result [3]: no binding
- Kd [4]: 17.8 nM
- koff [4]: 0.000418 s⁻¹
- kon [4]: 23400 M⁻¹ s⁻¹

B20: NRCoV2-MRed18 VHH (VHH)
VHH: EVQLVESGGGLVQPGGSLRLSCAASTTVFGRNAMGWYRQAPGKERELVATVSDGGTPNYADSVKGRFTISRDNAKNTIYLQMNSLEPEDTAVYYCNYYNYYYGRNFWGQGTQVTVSS
- Kd [2]: 6.8 nM
- koff [2]: 0.00103 s⁻¹
- kon [2]: 152000 M⁻¹ s⁻¹
- binding result [3]: no binding
- Kd [4]: 7.56 nM
- koff [4]: 0.00153 s⁻¹
- kon [4]: 202000 M⁻¹ s⁻¹

B21: NRCoV2-10 VHH-Fc (Fc fusion)
chain: QLQLQESGGGLVQPGGSLTLSCAASGNTFSRSNMHWYRQAPGAQREWVAAISSRGISTYAYSAKGRFTISRDNAKNTVSLQMNSLKPEDTAVYYCYAADDLGDYWGQGTQVTVSS
notes: bivalent VHH-Fc
- IC50 [1]: 8.8 nM

B22: NRCoV2-15 VHH-Fc (Fc fusion)
chain: EVQLVSSGGGLVEAGGSLRLSCIASGSTSGRNTMGWFRQAPGKQREWVAIVSTSGATNYAGSVKGRFTLSRDNAKNAVYLQMNNLKPEDTAVYYCYAAYGGGGDYWGQGTQVTVSS
notes: bivalent VHH-Fc
- IC50 [1]: 5.8 nM

B23: NRCoV2-MRed22 VHH (VHH)
VHH: EVQLVESGGGLVQPGGSLRLSCAASGSVFASNAMGWYRQAPGKQRELVATISSRGSTNYADSVKGRFTISRDNAKNTVYLQMNSLGPEDTAVYYCNAREFTGFDYWGQGTQVTVSS
- Kd [2]: 1.05 nM
- koff [2]: 0.000284 s⁻¹
- kon [2]: 270000 M⁻¹ s⁻¹
- binding result [3]: no binding
- Kd [4]: 0.506 nM
- koff [4]: 0.000176 s⁻¹
- kon [4]: 347000 M⁻¹ s⁻¹
